In PMC10246530:

Legend:
[1] = molecular target: T1, SARS-CoV-2 nucleocapsid NTD (WT) (SARS-CoV-2 (reference genome …, UniProt P0DTC9 44-180)); assay: NMR; SL4ext-like; stability confirmed by aSEC; details: protein: recombinant, tags: cleaved tag, one artificial N-terminal Gly left
[2] = molecular target: T1, SARS-CoV-2 nucleocapsid NTD (WT); assay: NMR; SL4ext-like; details: protein: recombinant; tags: cleaved tag; one artificial N-terminal Gly left
[3] = molecular target: T1, SARS-CoV-2 nucleocapsid NTD (WT); assay: NMR; intermediate exchange; details: protein: recombinant; tags: cleaved tag; one artificial N-terminal Gly left; labile hairpin, Tm 36.5 C
[4] = molecular target: T1, SARS-CoV-2 nucleocapsid NTD (WT); assay: EMSA; details: protein: recombinant; tags: cleaved tag; one artificial N-terminal Gly left; label: 5'-32P in EMSA; branched stem-loops
[5] = molecular target: T2, SARS-CoV-2 nucleocapsid NTD (WT) (SARS-CoV-2 (reference genome …, UniProt P0DTC9 44-180)); assay: ITC; details: protein: recombinant; tags: cleaved tag; one artificial N-terminal Gly left; label: 5'-32P in EMSA; hairpin
[6] = molecular target: T2, SARS-CoV-2 nucleocapsid NTD (WT); assay: ITC; low-salt; NTD titrated to RNA; details: protein: recombinant; tags: cleaved tag; one artificial N-terminal Gly left; label: 5'-32P in EMSA; hairpin
[7] = molecular target: T1, SARS-CoV-2 nucleocapsid NTD (WT); assay: ITC; low-salt; details: protein: recombinant; tags: cleaved tag; one artificial N-terminal Gly left; hairpin with 3' ss extension
[8] = molecular target: T1, SARS-CoV-2 nucleocapsid NTD (WT); assay: EMSA; 1 mM Mg2+, yeast tRNA; apparent; details: protein: recombinant, tags: cleaved tag, one artificial N-terminal Gly left, label: 5'-32P in EMSA

GCCUAAUCUUUACAAAAUGCAAAGA (structured_RNA) [P3_B]
binding result ([1]; labile hairpin): binds

GGAUGAAGAUUUUCAAGAAAACUGGAACACUAA (structured_RNA) [P2]
binding result [2]: binds

GGAUAAUUAAUAACUAAUUACU (ssRNA) [Ext]
binding result [3]: binds

B1: SL5 (structured_RNA)
RNA: GGUCGUUGACAGGACACGAGUAACUCGUCUAUCUUCUGCAGGCUGCUUACGGUUUCGUCCGUGUUGCAGCCGAUCAUCAGCACAUCUAGGUUUCGUCCGGGUGUGACCGAAAGGUAAGAUGGAGAGCCUUGUCCCUGGUUUCAACGAGAA
binding result [4]: binds

GGGUGUGGCUGUCACUCGGCUGCAUGCUUAGUGCACUCACGCCC (structured_RNA) [SL4]
Kd [5]: 53 µM
Kd [6]: 64 µM

GGUUUAUACCUUCCCAGGUAACAAACCAACCAACUUUC (structured_RNA) [SL1_extSL1]
Kd [7]: 87 µM

GGCUUUCGAUCUCUUGUAGAUCUGUUCUCUAAACGAACUUUAA (structured_RNA) [SL2+3]
apparent K (half saturation) ([8]; two stem-loops): ~10 µM

GCGUGGCAACCGGGUGUUGCUAUGCCUAAUCUUUACAAAAUGCAAAGA (structured_RNA) [P3]
binding result ([1]; tandem stem-loops): binds

B2: SL4ext (SL4_extSL4) (structured_RNA)
RNA: GGUCUGUGUGGCUGUCACUCGGCUGCAUGCUUAGUGCACUCACGCAGUAUAAUUAAUAACUAAUUACUG
apparent K (half saturation) ([8]; 15N-U/G for RNA-observed NMR, hairpin with 3' labile extension): ~5 µM
